Test system: Bacillus subtilis
Test: cleaved RNA product abundance (RNA/gDNA barcode ratio) relative to median wild-type variant (ratio to wild type); higher = more accumulation of the downstream cleavage product
Conditions: cleavage site: cggR-gapA (positions -7 to +36 mutated)
Description: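 MPRA in B. subtilis. Mutagenized RNase Y cleavage-site regions (9% mutation rate) were inserted into a barcoded reporter mRNA (truncated aprE or tetM). Cells were grown in LB at 37°C to OD600 0.3. The cleaved RNA isoform was gel-purified and its barcodes counted; the RNA:gDNA barcode ratio was normalised to the median wild-type variant, and the median over barcodes is reported per variant. The printed sequence is the variable window only; the reporter flanks are not printed.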

[1] = experiment (reporter, strain, medium): exp 4a: truncated aprE reporter, strain BJT201 with 2% xylose (RNase J1 expressed)
[2] = experiment (reporter, strain, medium): exp 2b: truncated aprE reporter, strain BJT200
[3] = experiment (reporter, strain, medium): exp 6: tetM reporter, strain 168

Row | Sequence | cleaved RNA product abundance [1] | cleaved RNA product abundance [2] | cleaved RNA product abundance [3]
1 | ACAGACGAAGGAGCCGCAAAGAAATTATTAAGCGATTAATAATCCCTCAATATAAATATCTCTCACTTATTTAAA | 0.0984 | – | –
2 | ACAGACGAAGGAGCCGCAAAGAAATTATTAAGGAATGAATAATCCCTCAATATAAATATCTCTCACTTATTTAAA | 0.191 | 0.101 | 0.104
3 | ACAGACGAAGGAGCCGCAAAGAAATTATTAAGGAATGAATAATCCTTCAATATAAATATCTCTCACTTATTTAAA | 0.153 | – | –
4 | ACAGACGAAGGAGCCGCAAAGAAATTATTAAGGCATGAATAATCCCTCAATATAAATATCTCTCACTTATTTAAA | 0.122 | 0.109 | –
5 | ACAGACGAAGGAGCCGCAAAGAAATTATTAAGGGAAGAATAATCCCTCAATATAAATATCTCTCACTTATTTAAA | 0.599 | 0.394 | –
6 | ACAGACGAAGGAGCCGCAAAGAAATTATTAAGGGACGAATAATCCCTCAATATAAATATCTCTCACTTATTTAAA | 0.596 | 0.392 | –
7 | ACAGACGAAGGAGCCGCAAAGAAATTATTAAGGGATAAATAATCCATCAATATAAATATCTCTCACTTATTTAAA | 0.216 | – | –
8 | ACAGACGAAGGAGCCGCAAAGAAATTATTAAGGGATAAATAATCCCTCAATATAAATATCTCTCACTTATTTAAA | 0.761 | 0.818 | 1.1
9 | ACAGACGAAGGAGCCGCAAAGAAATTATTAAGGGATCAATAATCCCTCAATATAAATATCTCTCACTTATTTAAA | – | 0.646 | –
10 | ACAGACGAAGGAGCCGCAAAGAAATTATTAAGGGATGAAAAATCCCTCAATATAAATATCTCTCACTTATTTAAA | 0.598 | 0.852 | –
11 | ACAGACGAAGGAGCCGCAAAGAAATTATTAAGGGATGAATAAACCCTCAATATAAATATCTCTCACTTATTTAAA | 0.49 | 0.405 | –
12 | ACAGACGAAGGAGCCGCAAAGAAATTATTAAGGGATGAATAACCCCTCAATATAAATATCTCTCACTTATTTAAA | 0.671 | – | –
13 | ACAGACGAAGGAGCCGCAAAGAAATTATTAAGGGATGAATAAGCCCTCAATATAAATATCTCTCACTTATTTAAA | 0.416 | – | –
14 | ACAGACGAAGGAGCCGCAAAGAAATTATTAAGGGATGAATAATAACTCAATATAAATATCTCTCACTTATTTAAA | 0.168 | – | –
15 | ACAGACGAAGGAGCCGCAAAGAAATTATTAAGGGATGAATAATACCTCAATATAAATATCTCTCACTTATTTAAA | 0.153 | 0.141 | –
16 | ACAGACGAAGGAGCCGCAAAGAAATTATTAAGGGATGAATAATCACTCAATATAAATATCTCTCACTTATTTAAA | 0.122 | 0.136 | –
17 | ACAGACGAAGGAGCCGCAAAGAAATTATTAAGGGATGAATAATCCATCAAGATAAATATCTCTCACTTATTTAAA | 0.118 | – | –
18 | ACAGACGAAGGAGCCGCAAAGAAATTATTAAGGGATGAATAATCCATCAATATAAATATCTCTCACTTATTTAAA | 0.201 | 0.163 | –
19 | ACAGACGAAGGAGCCGCAAAGAAATTATTAAGGGATGAATAATCCCACAATATAAATATCTCTCACTTATTTAAA | 0.298 | 0.195 | –

Row | Sequence | cleaved RNA product abundance [1] | cleaved RNA product abundance [2] | cleaved RNA product abundance [3]
20 | ACAGACGAAGGAGCCGCAAAGAAATTATTAAGGGATGAATAATCCCCCAATATAAATATCTCTCACTTATTTAAA | 0.465 | – | –
21 | ACAGACGAAGGAGCCGCAAAGAAATTATTAAGGGATGAATAATCCCGCAATATAAATATCTCTCACTTATTTAAA | 0.214 | – | –
22 | ACAGACGAAGGAGCCGCAAAGAAATTATTAAGGGATGAATAATCCCTAAATATAAATATCTCTCACTTATTTAAA | 0.667 | 0.458 | –
23 | ACAGACGAAGGAGCCGCAAAGAAATTATTAAGGGATGAATAATCCCTCAAAATAAATATCTCTCACTTATTTAAA | 0.365 | 0.257 | –
24 | ACAGACGAAGGAGCCGCAAAGAAATTATTAAGGGATGAATAATCCCTCAACATAAATATCTCTCACTTATTTAAA | 0.234 | – | –
25 | ACAGACGAAGGAGCCGCAAAGAAATTATTAAGGGATGAATAATCCCTCAAGATAAATATCTCTCACTTATTTAAA | 0.189 | 0.188 | –
26 | ACAGACGAAGGAGCCGCAAAGAAATTATTAAGGGATGAATAATCCCTCAATAAAAATATCTCTCACTTATTTAAA | – | 0.178 | –
27 | ACAGACGAAGGAGCCGCAAAGAAATTATTAAGGGATGAATAATCCCTCAATATAAAAATCTCTCACTTATTTAAA | 0.568 | – | –
28 | ACAGACGAAGGAGCCGCAAAGAAATTATTAAGGGATGAATAATCCCTCAATATAAATAGCTCTCACTTATTTAAA | 0.435 | – | –
29 | ACAGACGAAGGAGCCGCAAAGAAATTATTAAGGGATGAATAATCCCTCAATATAAATATATCTCACTTATTTAAA | 1.19 | – | –
30 | ACAGACGAAGGAGCCGCAAAGAAATTATTAAGGGATGAATAATCCCTCAATATAAATATCTCTCACTTATTTAAA | 0.783 | 0.826 | 0.759
31 | ACAGACGAAGGAGCCGCAAAGAAATTATTAAGGGATGAATAATCCCTCAATATAAATCTCTCTCACTTATTTAAA | 0.66 | – | –
32 | ACAGACGAAGGAGCCGCAAAGAAATTATTAAGGGATGAATAATCCCTCAATATAAATTTCTCTCACTTATTTAAA | 0.361 | – | –
33 | ACAGACGAAGGAGCCGCAAAGAAATTATTAAGGGATGAATAATCCCTCAATATAACTATCTCTCACTTATTTAAA | 0.325 | – | –
34 | ACAGACGAAGGAGCCGCAAAGAAATTATTAAGGGATGAATAATCCCTCAATATACATATCTCTCACTTATTTAAA | 0.46 | – | –
35 | ACAGACGAAGGAGCCGCAAAGAAATTATTAAGGGATGAATAATCCCTCAATATAGATATCTCTCACTTATTTAAA | 0.474 | – | –
36 | ACAGACGAAGGAGCCGCAAAGAAATTATTAAGGGATGAATAATCCCTCAATATATATATCTCTCACTTATTTAAA | 0.766 | – | –
37 | ACAGACGAAGGAGCCGCAAAGAAATTATTAAGGGATGAATAATCCCTCAATTTAAATATCTCTCACTTATTTAAA | 0.153 | – | –
38 | ACAGACGAAGGAGCCGCAAAGAAATTATTAAGGGATGAATAATCCCTCAGTATAAATATCTCTCACTTATTTAAA | 0.215 | – | –

Row | Sequence | cleaved RNA product abundance [1] | cleaved RNA product abundance [2] | cleaved RNA product abundance [3]
39 | ACAGACGAAGGAGCCGCAAAGAAATTATTAAGGGATGAATAATCCCTCATTATAAATATCTCTCACTTATTTAAA | 0.514 | 0.197 | –
40 | ACAGACGAAGGAGCCGCAAAGAAATTATTAAGGGATGAATAATCCCTCCATATAAATATCTCTCACTTATTTAAA | 0.338 | – | –
41 | ACAGACGAAGGAGCCGCAAAGAAATTATTAAGGGATGAATAATCCCTCGATATAAATATCTCTCACTTATTTAAA | 0.395 | – | –
42 | ACAGACGAAGGAGCCGCAAAGAAATTATTAAGGGATGAATAATCCCTCTATATAAATATCTCTCACTTATTTAAA | 0.319 | 0.418 | –
43 | ACAGACGAAGGAGCCGCAAAGAAATTATTAAGGGATGAATAATCCCTGAATATAAATATCTCTCACTTATTTAAA | 0.548 | 0.49 | –
44 | ACAGACGAAGGAGCCGCAAAGAAATTATTAAGGGATGAATAATCCCTTAATATAAATATCTCTCACTTATTTAAA | 0.451 | – | –
45 | ACAGACGAAGGAGCCGCAAAGAAATTATTAAGGGATGAATAATCCGTCAATATAAATATCTCTCACTTATTTAAA | 0.261 | 0.192 | –
46 | ACAGACGAAGGAGCCGCAAAGAAATTATTAAGGGATGAATAATCCTTCAATATAAATATCTCTCACTTATTTAAA | 0.674 | – | –
47 | ACAGACGAAGGAGCCGCAAAGAAATTATTAAGGGATGAATAATCGCTCAATATAAATATCTCTCACTTATTTAAA | 0.101 | – | –
48 | ACAGACGAAGGAGCCGCAAAGAAATTATTAAGGGATGAATAATCTCTCAATATAAATATCTCTCACTTATTTAAA | 0.476 | – | –
49 | ACAGACGAAGGAGCCGCAAAGAAATTATTAAGGGATGAATAATGCCTCAATATAAATATCTCTCACTTATTTAAA | 0.132 | 0.172 | –
50 | ACAGACGAAGGAGCCGCAAAGAAATTATTAAGGGATGAATAATTCCTCAATATAAATATCTCTCACTTATTTAAA | 0.415 | 0.457 | –
51 | ACAGACGAAGGAGCCGCAAAGAAATTATTAAGGGATGAATACTCCCTCAATATAAATATCTCTCACTTATTTAAA | – | 0.416 | –
52 | ACAGACGAAGGAGCCGCAAAGAAATTATTAAGGGATGAATAGTCCCTCAATATAAATATCTCTCACTTATTTAAA | 0.937 | – | –
53 | ACAGACGAAGGAGCCGCAAAGAAATTATTAAGGGATGAATATTCCCTCAATATAAATATCTCTCACTTATTTAAA | 0.595 | – | –
54 | ACAGACGAAGGAGCCGCAAAGAAATTATTAAGGGATGAATGATCCCTCAATATAAATATCTCTCACTTATTTAAA | 0.661 | – | –
55 | ACAGACGAAGGAGCCGCAAAGAAATTATTAAGGGATGAATTATCCCTCAATATAAATATCTCTCACTTATTTAAA | 0.711 | 0.539 | –
56 | ACAGACGAAGGAGCCGCAAAGAAATTATTAAGGGATGACTAATCCCTCAATATAAATATCTCTCACTTATTTAAA | 0.573 | 0.453 | –
57 | ACAGACGAAGGAGCCGCAAAGAAATTATTAAGGGATGACTAATCTCTCAATATAAATATCTCTCACTTATTTAAA | 0.582 | – | –
